# Test results as given in PMC9430756, “AhrC Negatively Regulates Streptococcus mutans Arginine Biosynthesis”.
# Tests used:
# [1] = target: T1, AhrC (Streptococcus mutans UA159) (UniProt Q8DVB1); assay: EMSA; details: EMSA: 20 mM Tris-HCl, 100 mM NaCl, 5% glycerol, 30 min on ice, pH not stated; native PAGE in 0.5x TBE at 4 C. Footprinting: DNase I 0.1 Kunitz units/uL, 4 min …
# T1 sequence: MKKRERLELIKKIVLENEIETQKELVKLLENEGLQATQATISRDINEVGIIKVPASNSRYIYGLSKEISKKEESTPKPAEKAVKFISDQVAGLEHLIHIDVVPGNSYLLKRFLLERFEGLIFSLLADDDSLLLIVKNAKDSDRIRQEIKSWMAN
# AhrC [2] = target: T2, AhrC (Streptococcus mutans UA159, UniProt Q8DVB1 1-154); assay: EMSA; details: protein: recombinant; tags: 6xHis (pET28a, NotI/XhoI); chain copies: 6; label: FAM
# T2 sequence: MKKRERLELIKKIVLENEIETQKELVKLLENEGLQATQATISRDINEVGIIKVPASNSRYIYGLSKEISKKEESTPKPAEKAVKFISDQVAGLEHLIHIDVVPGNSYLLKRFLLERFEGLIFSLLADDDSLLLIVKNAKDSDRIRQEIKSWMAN
# AhrC [3] = target: T2, AhrC; assay: EMSA; EMSA: 20 mM Tris-HCl, 100 mM NaCl, 5% glycerol, 30 min on ice, pH not stated; native PAGE in 0.5x TBE at 4 C. Footprinting: DNase I 0.1 Kunitz units/uL, 4 min at 37 C; details: protein: recombinant; tags: 6xHis (pET28a, NotI/XhoI); chain copies: 6; label: FAM
molecule,measurement,setting,value
AATAATTTTGTTATCATGAGTTAAAGTATCTAGTTATAAACTAGGTACTTTTTACATTTTATTCATTTCTAGCTTGACTTATGAATAAATATACGATAAAATAAACAACATCTTTATAAAGGAAGTGAATAAGT (double strand) [argC promoter (argCp)],binding,[1],binds
argC p1mut (dsDNA) DNA 1: CATTTCTAGCTTGCCCCCCGACCCCCCATACGATAAA DNA 2: TTTATCGTATGGGGGGTCGGGGGGCAAGCTAGAAATG,binding result,AhrC [2],no binding
argC p1 (dsDNA) DNA 1: CATTTCTAGCTTGACTTATGAATAAATATACGATAAA DNA 2: TTTATCGTATATTTATTCATAAGTCAAGCTAGAAATG,binding result,AhrC [3],binds
